From paper PMC7863765 (Journal of Molecular Biology, 2021) come the findings set out here.

This experiment concerns the target T1, polyphosphorylated full-length SARS-CoV-2 nucleocapsid protein pN.1-419 (SARS-CoV-2, UniProt P0DTC9 1-419).
T1 construct: also called phosphorylated N; polyphosphorylated N; not shown: His6, N-terminal, kept
As to the kind of experiment: SEC. The note with it: both partners purified.

B1: full-length human 14-3-3ε (as used in the SEC titration) (natural protein, UniProt P62258 1-255, looked up)
chain: MDDREDLVYQAKLAEQAERYDEMVESMKKVAGMDVELTVEERNLLSVAYKNVIGARRASWRIISSIEQKEENKGGEDKLKMIREYRQMVETELKLICCDILDVLDKHLIPAANTGESKVFYYKMKGDYHRYLAEFATGNDRKEAAENSLVAYKAASDIAMTELPPTHPIRLGLALNFSVFYYEILNSPDRACRLAKAAFDDAIAELDTLSEESYKDSTLIMQLLRDNLTLWTSDMQGDGEEQNKEALQDVEDENQ
notes: human 14-3-3 protein epsilon, full length; Same construct as m21 (TEV-cleavable His6-tag)
Regarding B1, binding was characterised by a dissociation constant (Kd) of 10.7 µM and the “stoichiometry N” value was ~1 14-3-3ε chains per pN.1-419 chain (2:2).

B2: untagged full-length human 14-3-3ζ (natural protein, UniProt P63104 1-245, looked up)
chain: MDKNELVQKAKLAEQAERYDDMAACMKSVTEQGAELSNEERNLLSVAYKNVVGARRSSWRVVSSIEQKTEGAEKKQQMAREYREKIETELRDICNDVLSLLEKFLIPNASQAESKVFYLKMKGDYYRYLAEVAAGDDKKGIVDQSQQAYQEAFEISKKEMQPTHPIRLGLALNFSVFYYEILNSPEKACSLAKTAFDEAIAELDTLSEESYKDSTLIMQLLRDNLTLWTSDTQGDEAEAGEGGEN
notes: human 14-3-3 protein zeta, full length, untagged; also called wild-type dimeric 14-3-3ζ
In the case of B2, the binding result is given as “binds”.
